Measured values as given in US6849712B1, “Peptides with β1 integrin subunit dependent cell adhesion modulating activity” (Regents of the University of Minnesota, priority 1998, dated 2005).
“Also recorded” adds a separate entry of the source. Where no end group is shown, it is not given here. [ ]: non-standard residue; d: D form.

Assays:
[1] = biological target: T1, α5β1 integrin (Homo sapiens, UniProt P05556+P08648); experiment: Inhibition of α5β1 integrin dependent Mn+2 stimulated adhesion of K562 cells to fibronectin (FN); type: cell-based; details: for inhibition of K562 adhesion to FN at the maximal concentration tested: 0.84 mM peptide, K562 cells stimulated with 1 mM MnCl2
T1 construct: erythroleukemic cell line K562, which expresses α5β1 but not α4β1 integrin; endogenous in cells; host or cells: K562 cells
Protocol: The cell adhesion assay was carried out as described above. […] Each data point represents the mean of triplicate determinations and the error bars represent the standard deviation of the mean. The solid black line represents adhesion to the negative control substrate, BSA.

[2] = biological target: α4β1 integrin (Homo sapiens, UniProt P05556+P13612); experiment: Inhibition of α4β1 dependent adhesion of 8A2 stimulated Ramos cells to IIICS-GST; type: cell-based; parameters: endogenous in cells; host or cells: Ramos cells; details: Ramos cells activated with mAb 8A2, preincubated with peptide, result in words
From the text: IIICS-GST is recombinantly produced fusion protein which contains a fragment from the type III CS region (“IIICS”) of plasma fibronectin fused to glutathione-S-transferase (“GST”). The fibronectin fragment corresponds to fibronectin amino acid residues 1961 to 2039 (sequence numbering for fibronectin as designated in U.S. Pat. No. 4,839,464) and includes the […] (SEQ ID NO:46) amino acid sequence (“CS1”; fibronectin residues 1961-1985). […] In the assay, a 96-well plate was coated with the substrate IIICS-GST. Ramos cells stimulated with the β1 activating monoclonal antibody 8A2 (“Ab 8A2”) were preincubated with one of the peptides to be evaluated for their ability to adhere to IIICS-GST.
The fusion protein can be constructed by first using PCR primers to amplify the coding sequence for residues 1961-2039 of plama fibronectin. The PCR product can be introduced into a suitable bacterial expression vector in frame with the gene for GST. The resulting vector can be transformed and expressed in a suitable host cell, such as E Coli, to produce the fusion protein. If desired, the fusion protein can be purified using a glutathione column.
A 96-well plate was coated in triplicate with […] of IIICS-GST diluted to […] in PBS containing 1 mM CaCl2, MgCl2 (“PBS/cations”) and incubated overnight at 37° C. The IIICS-GST solution was removed and the wells were blocked with 150 μ/well of PBS/cations containing 0.3% BSA for 1-2 hours at 37° C. During the assay each well contained 100 μl of Ramos cells (10,000 cells/well) with or without peptide. Ramos cells were washed 3 times in adhesion media (DMEM without phenol red containing 20 mM HEPES and 3 mg/ml BSA). Cells were counted and resuspended at 200,000 cells/ml. Concentrated Ramos cells were labeled for 20 minutes at 37° C. with 50 μg of the fluorescent label BCECF resuspended in 30 μl of dimethylsulfoxide (“DMSO”). The labeled cells were centrifuged and resuspended in adhesion media at a concentration of 200,000 cells/ml. The cells were activated with the activating Ab 8A2 at a concentration of 2 μg/ml purified IgG or 1:1000 culture supernatant.
While the cells were being labeled, inhibiting peptide dilutions were prepared. Lyophilized peptides were weighed and resuspended in adhesion media at a stock concentration of twice the maximal inhibitory concentration. If a peptide was difficult to get into solution, it was initially resuspended in 30 μl of DMSO. If a peptide needed to be suspended in DMSO, all of the eptides in that particular experiment (including the controls) were suspended in 30 μl of DMSO. […] The dose-dependent dilutions of peptides were prepared using adhesion media to dilute the stock peptide. Labeled cells were mixed with peptide dilutions for 5 minutes at 37° C. at a final concentration of 100,000 cells/ml and appropriate final peptide concentrations.
The blocking solution was removed from the 96-well plate and the cell/peptide mixture is added at 100 μl/well (10,000 cells/well) and incubated for 30 minutes at 37° C. An aliquot of standard cells/peptide (100 μl) was placed at 37° C. for quantitating adhesion. Using aspiration, non-adherent cells were removed from the plate. The standard cells were centrifuged and resuspended in […] of adhesion media. The standard cells were added to empty wells at 100, 80, 60, 40, 20 and 0 μl /well representing 100%, 80%, 60%, 40%, 20% and 0% adhesion, respectively. The plate fluorescence was read at excitation 485 and emission 530. Cell adhesion was represented as percent input cells remaining adherent and was determined by a standard curve of the fluorescence obtained with the standard cells. The experimental fluorescence readings were extrapolated from the standard curve to obtain percent adhesion.

[3] = test system: peripheral blood mononuclear cells and spleen cells; details: reported, Wahl et al.; cited from earlier work
[4] = in vivo rat model, reported; cited from earlier work
[5] = test system: α2β1 and α3β1 integrin; experiment: Inhibition of α2β1, α3β1 integrin dependent human melanoma M14#5 cell adhesion to laminin and type IV collagen; type: cell-based; details: 0.5 mg/ml peptide (0.42 mM), 30 minutes
Protocol: An experiment was conducted to examine the ability of FN-C/H V+Y (SEQ ID NO:1) to inhibit α2β1, α3β1 integrin dependent cell adhesion using an assay based on human melanoma cells (M14#5).
Laminin, type IV collagen and BSA were coated overnight in a 96 well microtiter plate at 10 μg/ml and blocked with 0.3% BSA. M14#5 cells were preincubated with 0.5 mg/ml of peptide (equivalent to 0.42 mM FN-C/H V and scrambled FN-C/H V and 0.17 mM CSI) and allowed to adhere to substrates for 30 minutes.

[6] = biological target: α5β1 integrin (UniProt P08648 42-1049; P05556 21-798); experiment: cell-based or functional assay
α5β1 integrin (UniProt P08648 42-1049; P05556 21-798), sequence (P08648 42-1049, chain 1 of 2): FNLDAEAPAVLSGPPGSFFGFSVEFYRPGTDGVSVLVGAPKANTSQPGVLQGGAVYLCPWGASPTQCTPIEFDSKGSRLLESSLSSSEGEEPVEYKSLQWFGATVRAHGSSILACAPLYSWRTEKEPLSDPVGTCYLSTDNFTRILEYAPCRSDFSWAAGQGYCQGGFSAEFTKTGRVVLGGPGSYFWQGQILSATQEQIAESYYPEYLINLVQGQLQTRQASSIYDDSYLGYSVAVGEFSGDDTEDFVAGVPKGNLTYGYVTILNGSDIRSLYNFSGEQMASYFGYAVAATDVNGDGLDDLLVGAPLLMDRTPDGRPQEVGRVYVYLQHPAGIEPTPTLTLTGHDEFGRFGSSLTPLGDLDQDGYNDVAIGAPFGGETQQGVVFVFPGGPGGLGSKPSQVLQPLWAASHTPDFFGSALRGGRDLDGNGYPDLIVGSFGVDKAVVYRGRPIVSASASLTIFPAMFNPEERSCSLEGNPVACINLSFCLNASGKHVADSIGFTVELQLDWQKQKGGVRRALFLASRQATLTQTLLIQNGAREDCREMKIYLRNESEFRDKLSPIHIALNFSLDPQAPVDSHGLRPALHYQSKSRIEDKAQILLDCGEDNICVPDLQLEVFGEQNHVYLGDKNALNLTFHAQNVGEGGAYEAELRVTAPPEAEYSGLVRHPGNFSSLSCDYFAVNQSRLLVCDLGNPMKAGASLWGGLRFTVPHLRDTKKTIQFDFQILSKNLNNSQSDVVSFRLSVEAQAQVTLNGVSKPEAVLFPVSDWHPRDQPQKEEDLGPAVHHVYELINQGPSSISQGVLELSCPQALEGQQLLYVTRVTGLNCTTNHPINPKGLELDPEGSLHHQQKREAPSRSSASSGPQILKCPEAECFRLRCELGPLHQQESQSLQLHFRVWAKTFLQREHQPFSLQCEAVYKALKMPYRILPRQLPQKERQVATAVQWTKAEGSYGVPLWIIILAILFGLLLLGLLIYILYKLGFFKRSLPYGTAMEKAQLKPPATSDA
α5β1 integrin (UniProt P08648 42-1049; P05556 21-798), sequence (P05556 21-798, chain 2 of 2): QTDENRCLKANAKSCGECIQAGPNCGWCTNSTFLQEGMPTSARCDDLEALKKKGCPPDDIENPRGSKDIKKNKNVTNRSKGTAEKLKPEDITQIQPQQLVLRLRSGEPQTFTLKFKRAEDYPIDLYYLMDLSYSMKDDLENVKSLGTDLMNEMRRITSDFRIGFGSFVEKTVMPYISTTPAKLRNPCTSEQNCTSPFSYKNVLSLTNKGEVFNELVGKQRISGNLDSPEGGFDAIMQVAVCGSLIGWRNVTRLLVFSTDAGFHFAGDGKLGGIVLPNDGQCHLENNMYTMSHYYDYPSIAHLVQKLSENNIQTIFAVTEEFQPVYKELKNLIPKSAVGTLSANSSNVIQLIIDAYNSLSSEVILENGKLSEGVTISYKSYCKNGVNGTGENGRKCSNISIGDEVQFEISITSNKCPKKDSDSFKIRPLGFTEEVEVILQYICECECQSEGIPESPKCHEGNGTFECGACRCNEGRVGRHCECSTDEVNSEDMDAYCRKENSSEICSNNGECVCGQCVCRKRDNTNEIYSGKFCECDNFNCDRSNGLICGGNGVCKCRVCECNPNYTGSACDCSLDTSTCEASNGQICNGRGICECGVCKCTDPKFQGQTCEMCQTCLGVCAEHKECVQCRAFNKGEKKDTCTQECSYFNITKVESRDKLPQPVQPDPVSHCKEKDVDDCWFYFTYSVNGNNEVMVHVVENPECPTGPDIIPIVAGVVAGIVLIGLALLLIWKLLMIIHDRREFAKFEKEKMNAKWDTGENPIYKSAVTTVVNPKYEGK

α4β1 integrin, sequence (P13612 34-1032): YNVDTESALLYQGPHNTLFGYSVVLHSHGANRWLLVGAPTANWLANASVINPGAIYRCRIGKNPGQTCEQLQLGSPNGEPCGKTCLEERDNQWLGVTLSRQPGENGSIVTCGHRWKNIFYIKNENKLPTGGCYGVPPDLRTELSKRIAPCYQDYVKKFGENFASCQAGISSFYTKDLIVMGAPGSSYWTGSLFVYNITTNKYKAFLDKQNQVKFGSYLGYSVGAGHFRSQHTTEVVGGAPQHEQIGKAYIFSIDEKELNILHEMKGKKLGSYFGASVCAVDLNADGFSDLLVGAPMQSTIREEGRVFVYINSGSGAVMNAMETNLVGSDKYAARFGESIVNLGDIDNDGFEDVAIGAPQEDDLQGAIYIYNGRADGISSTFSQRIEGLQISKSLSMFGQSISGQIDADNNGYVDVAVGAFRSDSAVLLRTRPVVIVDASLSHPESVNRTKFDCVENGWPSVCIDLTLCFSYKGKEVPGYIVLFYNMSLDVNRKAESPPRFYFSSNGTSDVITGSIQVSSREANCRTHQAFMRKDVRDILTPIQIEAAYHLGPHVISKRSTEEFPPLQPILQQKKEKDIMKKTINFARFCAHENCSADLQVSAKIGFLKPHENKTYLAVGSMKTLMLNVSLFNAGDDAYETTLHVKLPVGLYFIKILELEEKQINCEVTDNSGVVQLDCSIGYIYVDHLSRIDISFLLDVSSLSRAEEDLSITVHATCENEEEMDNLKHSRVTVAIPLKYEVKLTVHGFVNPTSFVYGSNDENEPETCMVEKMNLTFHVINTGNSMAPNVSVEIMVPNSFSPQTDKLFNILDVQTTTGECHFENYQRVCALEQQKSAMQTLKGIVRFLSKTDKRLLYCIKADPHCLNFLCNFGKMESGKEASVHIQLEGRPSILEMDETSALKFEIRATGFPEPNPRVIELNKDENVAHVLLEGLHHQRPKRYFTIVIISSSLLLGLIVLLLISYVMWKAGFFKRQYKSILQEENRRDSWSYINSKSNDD
α4β1 integrin, sequence (P05556 21-798): as the sequence (P05556 21-798, chain 2 of 2) above
T1 sequence (P08648 42-894 limits assumed): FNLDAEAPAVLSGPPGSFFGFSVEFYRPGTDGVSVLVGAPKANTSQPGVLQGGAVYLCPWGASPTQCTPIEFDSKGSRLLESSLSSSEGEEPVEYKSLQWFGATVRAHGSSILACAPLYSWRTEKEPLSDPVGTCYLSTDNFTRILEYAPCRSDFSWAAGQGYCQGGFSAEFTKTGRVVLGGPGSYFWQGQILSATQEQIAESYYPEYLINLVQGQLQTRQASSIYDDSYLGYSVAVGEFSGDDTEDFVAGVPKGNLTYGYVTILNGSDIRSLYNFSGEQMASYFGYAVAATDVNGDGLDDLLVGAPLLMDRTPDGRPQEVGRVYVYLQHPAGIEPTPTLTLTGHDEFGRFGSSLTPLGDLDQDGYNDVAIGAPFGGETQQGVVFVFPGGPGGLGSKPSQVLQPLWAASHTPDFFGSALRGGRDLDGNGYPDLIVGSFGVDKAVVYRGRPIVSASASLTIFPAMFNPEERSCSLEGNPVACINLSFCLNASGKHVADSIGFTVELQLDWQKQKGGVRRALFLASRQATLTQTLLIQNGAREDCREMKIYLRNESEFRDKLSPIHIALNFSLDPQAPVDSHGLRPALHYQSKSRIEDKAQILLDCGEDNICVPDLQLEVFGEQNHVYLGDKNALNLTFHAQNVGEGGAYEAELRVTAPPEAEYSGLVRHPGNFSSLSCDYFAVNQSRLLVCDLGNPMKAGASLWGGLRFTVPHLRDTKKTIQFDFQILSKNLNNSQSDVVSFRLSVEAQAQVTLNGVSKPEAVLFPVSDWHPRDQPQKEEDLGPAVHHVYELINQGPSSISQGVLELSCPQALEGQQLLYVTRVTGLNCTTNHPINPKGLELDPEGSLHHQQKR
T1 sequence (P08648 895-1049 limits assumed): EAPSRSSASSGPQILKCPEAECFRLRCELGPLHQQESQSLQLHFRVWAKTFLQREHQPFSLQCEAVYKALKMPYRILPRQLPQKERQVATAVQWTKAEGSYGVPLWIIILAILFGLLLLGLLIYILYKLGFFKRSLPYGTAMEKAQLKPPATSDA
T1 sequence (P05556 21-798): as the sequence (P05556 21-798, chain 2 of 2) above

**Q.** Which “inhibition of K562 adhesion to FN at the maximal concentration tested” value [1] does the source give for `N=C(N)NCCC[C@H](N)C(=O)NCC(=O)N[C@@H](CC(=O)O)C(=O)O` [RGD, reference compound] here?
**A.** completely inhibited

**Q.** With “AQPPRARIY (listed as Homo sapiens) [SEQ ID NO:3]” as the molecule, how does the “inhibition of adhesion of 8A2 stimulated Ramos cells to IIICS-GST” value (“inhibition of adhesion … to IIICS-GST” below) [2] read?
**A.** capable of inhibiting β1 integrin dependent cell adhesion

**Q.** Which “inhibition of adhesion … to IIICS-GST” value [2] does the source give for “ARITGYIIY (listed as Homo sapiens) [SEQ ID NO:14]” here?
**A.** exhibit the capability of inhibiting β1 integrin subunit dependent adhesion; also recorded: most active peptide; also recorded: inhibited cell adhesion

**Q.** For “ARIY (listed as Homo sapiens) [SEQ ID NO:26]”, which “inhibition of adhesion … to IIICS-GST” value [2] is on record?
**A.** comparable on an equimolar basis to that of Y-tagged FN C/H V

**Q.** Which “inhibition of adhesion … to IIICS-GST” value [2] does the source give for “IYWQPPRAR (listed as Homo sapiens) [SEQ ID NO:34]” here?
**A.** inactive

**Q.** Which “inhibition of leukocyte adhesion to fibronectin in vitro” value [3] does the source give for “KNNQKSEPLIGR-KKTY (KNNQKSEPLIGRKKTY; listed as Homo sapiens) [FN-C/H II+Y]” here?
**A.** inhibit leukocyte adhesion to fibronectin in vitro

**Q.** And the anti-inflammatory properties [4]?
**A.** exhibit anti-inflammatory properties

**Q.** Which “inhibition of adhesion … to IIICS-GST” value [2] does the source give for “PPRARIY (listed as Homo sapiens) [SEQ ID NO:23]” here?
**A.** also exhibited α4β1 integrin dependent cell adhesion inhibition activity

**Q.** With “PRARI (listed as Homo sapiens) [SEQ ID NO:39]” as the molecule, how does the “inhibition of adhesion … to IIICS-GST” value [2] read?
**A.** not PRARI was able to inhibit

**Q.** What does the source list for PRARIY-OH [SEQ ID NO:24, PRARIY]?
**A.** inhibition of K562 adhesion to FN at the maximal concentration tested [1]: completely inhibited; IC50 ([1]; K562 cells stimulated with 1 mM MnCl2, adhesion to FN, read-out: half-maximal inhibitory concentration): ~200 µM; inhibition of adhesion of 8A2 stimulated Ramos cells to IIICS-GST [2]: comparable on an equimolar basis to that of the 9 residue peptide, Y-tagged FN C/H V; also recorded: able to inhibit

**Q.** For “PRQAWRPIY (listed as Homo sapiens) [SEQ ID NO:18]”, which “inhibition of adhesion … to IIICS-GST” value [2] is on record?
**A.** exhibit the capability of inhibiting β1 integrin subunit dependent adhesion; also recorded: inhibited cell adhesion

**Q.** Which “inhibition of adhesion … to IIICS-GST” value [2] does the source give for “QPPRARIY (listed as Homo sapiens) [SEQ ID NO:22]” here?
**A.** also exhibited α4β1 integrin dependent cell adhesion inhibition activity

**Q.** With “RARITGYIY (listed as Homo sapiens) [SEQ ID NO:13]” as the molecule, how does the “inhibition of adhesion … to IIICS-GST” value [2] read?
**A.** exhibit the capability of inhibiting β1 integrin subunit dependent adhesion; also recorded: exhibited α4β1 integrin dependent cell adhesion inhibition

**Q.** For “RARIY (listed as Homo sapiens) [SEQ ID NO:25]”, which “inhibition of adhesion … to IIICS-GST” value [2] is on record?
**A.** comparable on an equimolar basis to that of the 9 residue peptide, Y-tagged FN C/H V

**Q.** Which “inhibition of adhesion … to IIICS-GST” value [2] does the source give for “RPAPQRWIY (listed as Homo sapiens) [SEQ ID NO:20]” here?
**A.** exhibit the capability of inhibiting β1 integrin subunit dependent adhesion; also recorded: inhibited cell adhesion

**Q.** Which results are given for “RPQIPWARY (listed as Homo sapiens) [SEQ ID NO:2]”?
**A.** inhibition of M14#5 cell adhesion to laminin ([5]; laminin coated substrate): has no effect; inhibition of M14#5 cell adhesion to type IV collagen ([5]; type IV collagen coated substrate): has no effect; inhibition of adhesion of 8A2 stimulated Ramos cells to IIICS-GST [2]: did not inhibit cell adhesion

**Q.** For “SPPRRARVTY (listed as Homo sapiens) [FN-C/H IV+Y]”, which “inhibition of leukocyte adhesion to fibronectin in vitro” value [3] is on record?
**A.** inhibit leukocyte adhesion to fibronectin in vitro

**Q.** Which “inhibition of adhesion … to IIICS-GST” value [2] does the source give for “WAPPRARIY (listed as Homo sapiens) [SEQ ID NO:4]” here?
**A.** capable of inhibiting β1 integrin dependent cell adhesion

**Q.** With “WQPIYPRAR (listed as Homo sapiens) [SEQ ID NO:35]” as the molecule, how does the “inhibition of adhesion … to IIICS-GST” value [2] read?
**A.** inactive

**Q.** Which “inhibition of adhesion … to IIICS-GST” value [2] does the source give for “WQPPAARIY (listed as Homo sapiens) [SEQ ID NO:7]” here?
**A.** capable of inhibiting β1 integrin dependent cell adhesion

**Q.** Which “inhibition of adhesion … to IIICS-GST” value [2] does the source give for “WQPPDADIY (listed as Homo sapiens) [SEQ ID NO:38]” here?
**A.** inhibits the 8A2 stimulated adhesion of Ramos cells at least as strongly as FN-C/H V+Y; also recorded: does not alter the ability of the peptide to inhibit β1 integrin subunit dependent adhesion

**Q.** For “WQPPRAAIY (listed as Homo sapiens) [SEQ ID NO:8]”, which “inhibition of adhesion … to IIICS-GST” value [2] is on record?
**A.** capable of inhibiting β1 integrin dependent cell adhesion

**Q.** Which “inhibition of adhesion … to IIICS-GST” value [2] does the source give for “WQPPRARI (listed as Homo sapiens) [SEQ ID NO:37, reference compound]” here?
**A.** also inactive

**Q.** With “WQPPRARIF (listed as Homo sapiens) [SEQ ID NO:32]” as the molecule, how does the “inhibition of adhesion … to IIICS-GST” value [2] read?
**A.** comparable to that of FN C/H V+Y

**Q.** For “WQPPRARIW (listed as Homo sapiens) [SEQ ID NO:33]”, which “inhibition of adhesion … to IIICS-GST” value [2] is on record?
**A.** comparable to that of FN C/H V+Y

**Q.** For “WQPPRARLY (listed as Homo sapiens) [SEQ ID NO:28]”, which “inhibition of adhesion … to IIICS-GST” value [2] is on record?
**A.** comparable to that of FN C/H V+Y

**Q.** With “WQPPRARVY (listed as Homo sapiens) [SEQ ID NO:29]” as the molecule, how does the “inhibition of adhesion … to IIICS-GST” value [2] read?
**A.** comparable to that of FN C/H V+Y

**Q.** With “WQPPRARYI (listed as Homo sapiens) [SEQ ID NO:36]” as the molecule, how does the “inhibition of adhesion … to IIICS-GST” value [2] read?
**A.** inactive

**Q.** Which results are given for “YIRARPPQW (not fully specified (some residues); listed as Homo sapiens) [SEQ ID NO:40]”?
**A.** inhibition of adhesion of 8A2 stimulated Ramos cells to IIICS-GST ([2]; listed as retro inverso FN-C/H V+Y): Neither of these two compounds inhibited Ramos cell binding; inhibition of adhesion of 8A2 stimulated Ramos cells to IIICS-GST ([2]; listed as retro-inverso FN-C/H V−Y): unable to inhibit adhesion

**Q.** Which “inhibition of adhesion … to IIICS-GST” value [2] does the source give for “all D-form of FN-C/H V+Y: all D-form of FN-C/H V+Y (SEQ ID NO:1) ([dW][dQ][dP][dP][dR][dA][dR][dI][dY]; listed as Homo sapiens)” here?
**A.** Neither of these two compounds inhibited Ramos cell binding

**Q.** And the “inhibition of adhesion … to IIICS-GST” value ([2]; listed as D-amino acid FN-C/H V−Y)?
**A.** unable to inhibit adhesion

**Q.** Which “half-maximal inhibitory concentration (K562 adhesion to FN)” value (“half-maximal inhibitory concentration” below) [6] does the source give for PRARIY here?
**A.** ~0.2 mM

**Q.** Which “half-maximal inhibitory concentration” value [6] does the source give for WQPPRARIY [FN-C/H V+Y] here?
**A.** 0.2 mM

**Q.** With RIY as the molecule, how does the “half-maximal inhibitory concentration” value [6] read?
**A.** ~0.2 mM
